In patent US20100260765A1:

Columns and labels:
[1] = biological target: whole KDR-ECD (Cat. # 676490, Calbiochem) (human) (UniProt P35968); experiment: ELISA, KDR-ECD coat 5 ug/mL, antibody 0.1 ug/mL
[2] = biological target: soluble KDR Ig4-7 domain (human) (UniProt P35968); experiment: ELISA, KDR Ig4-7 coat (1:1 diln.), antibody 0.01 ug/mL
[3] = biological target: soluble KDR Ig4-7 domain (human) (UniProt P35968); experiment: ELISA, KDR Ig4-7 coat (1:1 diln.), antibody 1 ug/mL
[4] = biological target: whole KDR-ECD (Cat. # 676490, Calbiochem) (human) (UniProt P35968); experiment: ELISA, KDR-ECD coat 5 ug/mL, antibody 1 ug/mL
[5] = biological target: soluble KDR Ig4-7 domain (human) (UniProt P35968); experiment: ELISA, KDR Ig4-7 coat (1:1 diln.), antibody 0.1 ug/mL
[6] = biological target: whole KDR-ECD (Cat. # 676490, Calbiochem) (human) (UniProt P35968); experiment: ELISA, KDR-ECD coat 5 ug/mL, antibody 0.01 ug/mL
KDR (human) = KDR (human) (UniProt P35968); experiment: cell-based or functional assay
Chain of KDR (human) (P35968 20-1356): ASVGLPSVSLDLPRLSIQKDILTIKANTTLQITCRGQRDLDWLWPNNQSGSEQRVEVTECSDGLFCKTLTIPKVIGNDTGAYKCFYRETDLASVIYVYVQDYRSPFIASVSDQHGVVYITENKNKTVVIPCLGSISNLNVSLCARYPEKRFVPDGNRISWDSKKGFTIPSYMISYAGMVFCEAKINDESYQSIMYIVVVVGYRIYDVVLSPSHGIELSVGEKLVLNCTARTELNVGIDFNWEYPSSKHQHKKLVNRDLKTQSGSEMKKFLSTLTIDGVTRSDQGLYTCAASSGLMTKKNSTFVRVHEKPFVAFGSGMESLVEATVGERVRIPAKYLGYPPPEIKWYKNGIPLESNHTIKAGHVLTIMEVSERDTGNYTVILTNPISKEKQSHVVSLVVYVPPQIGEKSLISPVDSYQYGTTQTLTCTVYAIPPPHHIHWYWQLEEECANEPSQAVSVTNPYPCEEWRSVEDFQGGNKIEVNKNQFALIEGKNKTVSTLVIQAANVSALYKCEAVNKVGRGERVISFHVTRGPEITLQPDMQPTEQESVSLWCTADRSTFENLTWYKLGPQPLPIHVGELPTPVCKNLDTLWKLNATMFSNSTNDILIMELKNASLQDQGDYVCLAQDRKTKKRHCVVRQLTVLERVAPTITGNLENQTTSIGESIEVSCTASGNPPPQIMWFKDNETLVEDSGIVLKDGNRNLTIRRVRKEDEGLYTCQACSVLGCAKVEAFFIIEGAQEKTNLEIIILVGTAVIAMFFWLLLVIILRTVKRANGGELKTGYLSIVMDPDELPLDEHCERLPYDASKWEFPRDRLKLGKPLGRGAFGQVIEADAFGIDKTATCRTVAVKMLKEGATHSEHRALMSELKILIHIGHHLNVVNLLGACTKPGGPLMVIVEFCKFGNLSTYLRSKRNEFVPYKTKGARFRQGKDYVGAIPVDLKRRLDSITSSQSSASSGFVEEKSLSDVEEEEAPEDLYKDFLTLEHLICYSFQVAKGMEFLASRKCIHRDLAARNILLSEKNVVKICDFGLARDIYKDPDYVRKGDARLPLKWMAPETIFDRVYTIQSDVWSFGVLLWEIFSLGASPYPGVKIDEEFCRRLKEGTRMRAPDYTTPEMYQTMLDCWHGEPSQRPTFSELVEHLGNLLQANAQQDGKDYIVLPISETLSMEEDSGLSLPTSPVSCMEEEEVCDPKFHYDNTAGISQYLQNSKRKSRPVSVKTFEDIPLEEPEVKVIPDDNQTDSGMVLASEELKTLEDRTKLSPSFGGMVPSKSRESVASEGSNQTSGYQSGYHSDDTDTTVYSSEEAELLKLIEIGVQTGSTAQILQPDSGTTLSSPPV

[7] = biological target: human KDR (VEGFR2) on cells (human) (UniProt P35968); experiment: FACS on HUVEC, control at 2 ug/mL
Chain of human KDR (VEGFR2) on cells (human) (P35968 20-1356): as above

Chain of whole KDR-ECD (Cat. # 676490, Calbiochem) (human) (P35968 20-764): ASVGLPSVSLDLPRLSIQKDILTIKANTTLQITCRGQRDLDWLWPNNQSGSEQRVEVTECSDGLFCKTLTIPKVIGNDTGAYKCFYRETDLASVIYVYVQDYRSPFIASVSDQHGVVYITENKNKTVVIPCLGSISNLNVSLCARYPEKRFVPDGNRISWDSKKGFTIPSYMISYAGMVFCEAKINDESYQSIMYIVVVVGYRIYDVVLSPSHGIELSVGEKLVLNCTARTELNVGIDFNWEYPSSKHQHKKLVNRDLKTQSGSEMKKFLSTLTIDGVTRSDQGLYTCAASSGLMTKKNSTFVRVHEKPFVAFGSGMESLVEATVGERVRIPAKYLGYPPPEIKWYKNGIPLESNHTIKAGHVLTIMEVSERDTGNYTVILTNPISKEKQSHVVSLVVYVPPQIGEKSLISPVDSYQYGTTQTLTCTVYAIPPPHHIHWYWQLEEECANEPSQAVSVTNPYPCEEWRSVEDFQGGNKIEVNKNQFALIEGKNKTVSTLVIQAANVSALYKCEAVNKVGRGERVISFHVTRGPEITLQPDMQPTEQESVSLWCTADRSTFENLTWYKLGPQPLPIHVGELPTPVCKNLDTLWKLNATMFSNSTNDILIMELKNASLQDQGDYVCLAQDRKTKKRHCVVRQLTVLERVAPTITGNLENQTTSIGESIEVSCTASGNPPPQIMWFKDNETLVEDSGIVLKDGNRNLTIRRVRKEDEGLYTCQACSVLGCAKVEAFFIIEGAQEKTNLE
Chain of soluble KDR Ig4-7 domain (human) (P35968 328-764): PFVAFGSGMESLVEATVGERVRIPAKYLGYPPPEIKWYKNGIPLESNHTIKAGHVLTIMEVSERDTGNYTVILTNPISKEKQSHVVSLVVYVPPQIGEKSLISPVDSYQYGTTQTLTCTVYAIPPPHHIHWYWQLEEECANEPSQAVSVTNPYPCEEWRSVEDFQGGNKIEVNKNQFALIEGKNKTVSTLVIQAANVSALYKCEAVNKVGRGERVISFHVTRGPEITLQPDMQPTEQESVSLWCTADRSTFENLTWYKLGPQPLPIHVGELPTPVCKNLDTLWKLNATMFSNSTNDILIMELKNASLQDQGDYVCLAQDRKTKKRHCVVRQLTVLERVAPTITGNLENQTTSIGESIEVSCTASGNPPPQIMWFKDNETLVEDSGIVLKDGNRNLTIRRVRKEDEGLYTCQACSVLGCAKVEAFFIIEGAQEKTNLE

Substance | ELISA reading [1] | ELISA reading [2] | ELISA reading [3] | ELISA reading [4] | ELISA reading [5] | ELISA reading [6] | % of Max VEGF KDR pTyr Activity (at 133 nM antibody concentration), Average (KDR (human)) [%] | % of Max VEGF KDR pTyr Activity (at 133 nM antibody concentration), N = 1 (KDR (human)) [%] | % of Max VEGF KDR pTyr Activity (at 133 nM antibody concentration), N = 2 (KDR (human)) [%] | FACS Geometric Mean [7]
IgG2 (antibody) | – | – | – | – | – | – | 9 | 6 | 12 | –
goat isotype control (antibody) | – | – | – | – | – | – | – | – | – | 3.28
IgG4 (Control) (Sigma-Aldrich, Cat. #14639) (antibody) | 0.078 | 0.075 | 0.181 | 0.106 | 0.078 | 0.077 | – | – | – | –

The remaining lines, values ahead:

ELISA reading [1] | ELISA reading [2] | ELISA reading [3] | ELISA reading [4] | ELISA reading [5] | ELISA reading [6] | % of Max VEGF KDR pTyr Activity (at 133 nM antibody concentration), Average (KDR (human)) [%] | % of Max VEGF KDR pTyr Activity (at 133 nM antibody concentration), N = 1 (KDR (human)) [%] | % of Max VEGF KDR pTyr Activity (at 133 nM antibody concentration), N = 2 (KDR (human)) [%] | FACS Geometric Mean [7] | Substance
0.087 | 0.079 | 0.139 | 0.121 | 0.097 | 0.082 | – | – | – | – | IgG1 (Control) (Sigma-Aldrich, Cat. #15154) (antibody)
– | – | – | – | – | – | 8 | 6 | 10 | – | IgG4 (antibody)
